Here are results for one molecule from patent publication US20250319180A1.

This experiment has as its target human LY6H expressed on 293T cells (plasmid BBP491, M1-P140 plus Myc-DDK) (human) (UniProt O94772). The experiment in a line: on-cell affinity by flow cytometry: unconjugated 12G7 (0.05-100 nM) competes with 1 nM PE-conjugated 12G7 on 293T cells expressing human LY6H; table row 293T-huLY6H. (In flow cytometry, cells or beads pass a laser one at a time.)

B1: 12G7 (antibody, V domains shown)
VH: QVQLQQWGAGLLKPSETLSLTCAVYGGSFSGYYWSWIRQPPGKGLEWIGEINHSGSTYYNPSLKSRVTMSVDTSKNQFSLKLSSVTAADTAVYYCAKRWELGAFDIWGQGTMVTVSS
VL: DIQMTQSPSSLSASVGDRVTITCRASQGISNYLAWYQQKPGKVPKLLIYAASTLQSGVPSRFSGSGSGTDFTLTISSLQPEDVATYYCQKYNSAPRTFGQGTKLEIK
By Kd is commonly meant the constant that tells how readily two partners part at equilibrium. Turning to B1, the Kd turned out to be 9.9 nM.
